Legend:
FGFR1 = FGFR1 (UniProt P11362); experiment: phosphorylation enrichment, bacterial display (enrichment ratio); higher = better substrate or ligand; peptides without Tyr show the background
Fes = Fes (UniProt P07332); experiment: as above
Hck = Hck (UniProt P08631); experiment: as above
Fer (mouse) = experiment: as above
MERTK = MERTK (UniProt Q12866); experiment: as above
FGFR3 = FGFR3 (UniProt P22607); experiment: as above
Jak2 = Jak2 (UniProt O60674); experiment: as above
EPHB2 = EPHB2 (UniProt P29323); experiment: as above
Chain of EPHB2 (P29323 whole entry, looked up): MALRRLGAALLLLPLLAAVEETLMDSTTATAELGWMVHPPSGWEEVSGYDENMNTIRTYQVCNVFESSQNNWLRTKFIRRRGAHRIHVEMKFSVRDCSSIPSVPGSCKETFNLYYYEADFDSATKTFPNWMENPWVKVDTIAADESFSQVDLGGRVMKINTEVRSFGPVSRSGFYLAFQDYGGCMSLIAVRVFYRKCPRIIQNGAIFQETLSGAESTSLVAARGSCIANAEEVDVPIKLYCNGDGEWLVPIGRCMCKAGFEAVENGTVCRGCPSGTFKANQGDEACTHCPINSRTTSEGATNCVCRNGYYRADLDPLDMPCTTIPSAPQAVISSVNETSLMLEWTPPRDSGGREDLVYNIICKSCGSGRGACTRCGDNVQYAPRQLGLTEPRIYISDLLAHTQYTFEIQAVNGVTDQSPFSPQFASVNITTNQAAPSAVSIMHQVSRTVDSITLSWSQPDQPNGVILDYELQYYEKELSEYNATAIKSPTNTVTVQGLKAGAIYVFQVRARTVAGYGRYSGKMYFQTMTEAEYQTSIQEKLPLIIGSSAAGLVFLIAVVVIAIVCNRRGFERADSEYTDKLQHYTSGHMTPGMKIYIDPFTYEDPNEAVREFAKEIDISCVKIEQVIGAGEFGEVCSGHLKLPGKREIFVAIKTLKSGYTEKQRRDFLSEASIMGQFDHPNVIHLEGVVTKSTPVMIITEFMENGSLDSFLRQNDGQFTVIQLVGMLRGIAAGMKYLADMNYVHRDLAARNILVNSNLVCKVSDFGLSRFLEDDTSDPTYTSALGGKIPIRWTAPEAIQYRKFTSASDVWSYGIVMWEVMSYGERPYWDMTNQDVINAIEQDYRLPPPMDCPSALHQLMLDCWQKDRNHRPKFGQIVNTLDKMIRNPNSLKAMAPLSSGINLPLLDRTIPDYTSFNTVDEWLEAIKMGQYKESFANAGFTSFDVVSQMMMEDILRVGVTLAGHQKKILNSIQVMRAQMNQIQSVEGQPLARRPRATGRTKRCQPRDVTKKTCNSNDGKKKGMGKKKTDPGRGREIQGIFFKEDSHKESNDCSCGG

c-Abl (mouse) = experiment: as above
c-Src = experiment: as above
AncSZ = experiment: as above
Fyn = Fyn (UniProt P06241); experiment: as above
Chain of Fyn (P06241 whole entry, looked up): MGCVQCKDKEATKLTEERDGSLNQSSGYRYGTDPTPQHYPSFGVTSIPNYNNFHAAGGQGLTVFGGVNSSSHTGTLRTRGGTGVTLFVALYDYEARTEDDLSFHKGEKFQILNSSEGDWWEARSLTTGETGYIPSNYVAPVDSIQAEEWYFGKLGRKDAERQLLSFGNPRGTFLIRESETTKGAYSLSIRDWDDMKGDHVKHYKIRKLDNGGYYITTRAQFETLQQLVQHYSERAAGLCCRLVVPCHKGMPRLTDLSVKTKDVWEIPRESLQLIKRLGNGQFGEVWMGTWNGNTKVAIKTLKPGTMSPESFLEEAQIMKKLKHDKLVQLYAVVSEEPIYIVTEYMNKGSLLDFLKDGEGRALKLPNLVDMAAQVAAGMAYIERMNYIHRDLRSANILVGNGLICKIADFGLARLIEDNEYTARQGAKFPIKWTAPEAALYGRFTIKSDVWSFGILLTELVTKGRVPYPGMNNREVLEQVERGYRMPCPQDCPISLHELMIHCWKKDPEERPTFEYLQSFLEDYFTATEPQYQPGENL

EPHB1 = EPHB1 (UniProt P54762); experiment: as above
Chain of EPHB1 (P54762 whole entry, looked up): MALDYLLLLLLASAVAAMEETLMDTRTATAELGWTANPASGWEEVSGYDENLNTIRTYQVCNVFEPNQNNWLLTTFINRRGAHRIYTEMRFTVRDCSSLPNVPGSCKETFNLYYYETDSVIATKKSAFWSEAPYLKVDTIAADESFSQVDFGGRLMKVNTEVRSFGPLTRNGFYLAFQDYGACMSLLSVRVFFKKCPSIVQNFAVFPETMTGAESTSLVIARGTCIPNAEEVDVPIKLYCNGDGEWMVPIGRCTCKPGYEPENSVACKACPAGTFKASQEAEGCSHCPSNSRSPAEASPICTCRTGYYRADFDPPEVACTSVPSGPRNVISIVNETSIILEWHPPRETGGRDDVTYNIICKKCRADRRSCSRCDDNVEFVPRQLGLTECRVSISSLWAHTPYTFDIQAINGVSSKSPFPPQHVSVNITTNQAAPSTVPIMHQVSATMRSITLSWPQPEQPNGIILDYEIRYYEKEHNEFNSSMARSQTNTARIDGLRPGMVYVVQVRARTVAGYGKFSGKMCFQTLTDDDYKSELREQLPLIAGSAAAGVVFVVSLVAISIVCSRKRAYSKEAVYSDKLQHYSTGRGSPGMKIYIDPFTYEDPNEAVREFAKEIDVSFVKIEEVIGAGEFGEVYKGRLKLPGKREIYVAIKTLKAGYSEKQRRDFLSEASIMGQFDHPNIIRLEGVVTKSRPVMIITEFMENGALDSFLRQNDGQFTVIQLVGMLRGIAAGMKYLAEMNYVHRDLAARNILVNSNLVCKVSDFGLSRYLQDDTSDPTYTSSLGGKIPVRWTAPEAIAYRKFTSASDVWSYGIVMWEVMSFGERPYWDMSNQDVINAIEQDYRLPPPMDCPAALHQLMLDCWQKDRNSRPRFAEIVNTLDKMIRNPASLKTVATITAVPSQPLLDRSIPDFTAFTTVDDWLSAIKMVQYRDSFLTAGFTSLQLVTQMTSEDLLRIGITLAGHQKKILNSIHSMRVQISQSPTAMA

c-Src SH2 = experiment: SH2 binding enrichment of the phosphorylated peptide, bacterial display (enrichment ratio); higher = better substrate or ligand; peptides without Tyr show the background
SHP2-C SH2 = experiment: as above
Grb2 SH2 = Grb2 SH2 (UniProt P62993); experiment: as above
Chain of Grb2 SH2 (P62993 whole entry, looked up, the tested form may be a part): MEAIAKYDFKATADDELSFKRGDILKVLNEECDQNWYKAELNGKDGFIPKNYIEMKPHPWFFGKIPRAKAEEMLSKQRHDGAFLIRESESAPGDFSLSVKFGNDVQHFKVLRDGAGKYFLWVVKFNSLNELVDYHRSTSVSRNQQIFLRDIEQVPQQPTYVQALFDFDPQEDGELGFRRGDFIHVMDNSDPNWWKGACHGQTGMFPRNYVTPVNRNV
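Wherever SH2 binding enrichment of the phosphorylated peptide, bacterial display is given: peptide library displayed on the E. coli surface as eCPX fusions, selected cells deep-sequenced, score is each peptide's frequency after selection divided by its frequency in the input.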
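Wherever phosphorylation enrichment, bacterial display is given: 11-residue human phosphosite peptides and single-mutation variants displayed on the E. coli surface, counted by deep sequencing, each peptide's frequency after selection divided by its frequency in the unselected input library; frequency after pTyr selection over input frequency; kinase dosed for 20-30% of maximal phosphorylation in three min.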

Chain of Hck (P08631 whole entry, looked up): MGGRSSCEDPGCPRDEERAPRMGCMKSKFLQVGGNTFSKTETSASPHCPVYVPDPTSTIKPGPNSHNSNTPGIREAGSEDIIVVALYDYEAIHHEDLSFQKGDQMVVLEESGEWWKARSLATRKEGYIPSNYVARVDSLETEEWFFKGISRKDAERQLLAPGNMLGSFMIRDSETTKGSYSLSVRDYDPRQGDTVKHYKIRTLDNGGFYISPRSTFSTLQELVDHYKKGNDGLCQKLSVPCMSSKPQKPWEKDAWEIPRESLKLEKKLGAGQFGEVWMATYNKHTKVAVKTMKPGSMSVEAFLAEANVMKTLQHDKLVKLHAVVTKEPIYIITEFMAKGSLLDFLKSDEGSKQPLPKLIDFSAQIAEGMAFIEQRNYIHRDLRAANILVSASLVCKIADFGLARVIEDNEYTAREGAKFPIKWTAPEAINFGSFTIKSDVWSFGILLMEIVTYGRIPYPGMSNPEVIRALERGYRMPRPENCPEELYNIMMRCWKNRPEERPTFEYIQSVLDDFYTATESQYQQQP
Chain of FGFR1 (P11362 whole entry, looked up): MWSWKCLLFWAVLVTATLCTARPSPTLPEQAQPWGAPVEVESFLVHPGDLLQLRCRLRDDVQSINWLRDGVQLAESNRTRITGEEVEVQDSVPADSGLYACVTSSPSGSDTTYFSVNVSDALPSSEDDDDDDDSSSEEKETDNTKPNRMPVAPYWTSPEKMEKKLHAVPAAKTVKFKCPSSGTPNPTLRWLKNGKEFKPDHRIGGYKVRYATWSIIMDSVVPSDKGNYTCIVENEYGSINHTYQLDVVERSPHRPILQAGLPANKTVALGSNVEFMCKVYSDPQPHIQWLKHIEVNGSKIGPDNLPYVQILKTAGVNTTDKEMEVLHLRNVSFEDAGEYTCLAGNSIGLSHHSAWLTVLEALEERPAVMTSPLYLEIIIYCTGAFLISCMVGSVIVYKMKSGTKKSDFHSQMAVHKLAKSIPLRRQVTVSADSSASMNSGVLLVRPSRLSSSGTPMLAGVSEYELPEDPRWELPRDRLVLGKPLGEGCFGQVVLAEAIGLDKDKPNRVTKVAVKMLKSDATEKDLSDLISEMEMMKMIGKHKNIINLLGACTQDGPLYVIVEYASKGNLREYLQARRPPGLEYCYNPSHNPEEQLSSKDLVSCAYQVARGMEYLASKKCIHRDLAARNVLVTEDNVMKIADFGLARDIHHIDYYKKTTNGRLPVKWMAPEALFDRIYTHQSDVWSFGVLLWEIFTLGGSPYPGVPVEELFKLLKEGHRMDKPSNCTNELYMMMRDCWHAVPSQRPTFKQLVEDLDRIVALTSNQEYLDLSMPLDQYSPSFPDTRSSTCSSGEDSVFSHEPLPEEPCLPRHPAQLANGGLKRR
Chain of FGFR3 (P22607 whole entry, looked up): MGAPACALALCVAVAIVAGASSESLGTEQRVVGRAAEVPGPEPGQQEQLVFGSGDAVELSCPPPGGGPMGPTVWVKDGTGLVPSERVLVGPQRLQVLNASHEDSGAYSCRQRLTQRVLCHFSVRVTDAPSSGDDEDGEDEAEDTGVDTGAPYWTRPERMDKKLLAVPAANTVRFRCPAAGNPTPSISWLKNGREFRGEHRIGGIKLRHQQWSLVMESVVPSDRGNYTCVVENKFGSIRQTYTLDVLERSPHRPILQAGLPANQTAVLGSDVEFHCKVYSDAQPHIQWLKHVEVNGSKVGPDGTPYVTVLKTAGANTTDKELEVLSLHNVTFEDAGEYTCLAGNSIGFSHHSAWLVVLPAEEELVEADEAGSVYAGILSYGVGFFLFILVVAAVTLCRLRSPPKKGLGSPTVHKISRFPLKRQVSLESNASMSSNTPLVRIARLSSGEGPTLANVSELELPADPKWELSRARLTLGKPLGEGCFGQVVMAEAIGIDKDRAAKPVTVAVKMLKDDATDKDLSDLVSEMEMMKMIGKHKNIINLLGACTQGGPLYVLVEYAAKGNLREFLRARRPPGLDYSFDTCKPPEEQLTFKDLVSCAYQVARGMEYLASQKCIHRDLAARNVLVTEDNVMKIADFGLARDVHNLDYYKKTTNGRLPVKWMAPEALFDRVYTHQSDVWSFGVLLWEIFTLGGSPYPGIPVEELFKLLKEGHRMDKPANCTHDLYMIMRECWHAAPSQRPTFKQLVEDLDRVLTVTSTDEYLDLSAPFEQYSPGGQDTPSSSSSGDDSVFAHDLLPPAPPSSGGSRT

Row | Sequence | phosphorylation enrichment (FGFR1) | phosphorylation enrichment (Fes) | phosphorylation enrichment (Hck) | phosphorylation enrichment (Fer (mouse)) | phosphorylation enrichment (MERTK) | phosphorylation enrichment (FGFR3) | phosphorylation enrichment (Jak2) | phosphorylation enrichment (EPHB2) | phosphorylation enrichment (c-Abl (mouse)) | phosphorylation enrichment (c-Src) | phosphorylation enrichment (AncSZ) | phosphorylation enrichment (Fyn) | phosphorylation enrichment (EPHB1) | SH2 binding enrichment (c-Src SH2) | SH2 binding enrichment (SHP2-C SH2) | SH2 binding enrichment (Grb2 SH2)
1 | GVLDIYGFEIL [MYO1A_Y382] | 0.579 | 1.14 | 1.59 | 0.694 | 0.41 | 0.787 | 0.978 | 0.541 | 0.695 | 1.76 | 1.14 | 2.92 | 0.903 | 0.343 | 0.574 | 0.793
2 | HEEDNYIELIP [NWD2_Y566] | 6.02 | 2.29 | 1.02 | 1.27 | 1.33 | 5.2 | 2.21 | 1.91 | 1.89 | 1.3 | 3.19 | 0.905 | 2.98 | 0.458 | 0.793 | 0.53
3 | HFEDGYPGGSD [CTNND1_Y221_YF] | 0.668 | 1.45 | 0.756 | 0.5 | 0.598 | 0.806 | 0.955 | 0.675 | 0.485 | 0.514 | 1.15 | 0.74 | 0.656 | 0.397 | 0.731 | 0.851
4 | HGQVNYEEFVQ [CALM2_Y139_D134H] | 0.795 | 1.92 | 1.37 | 1.26 | 0.92 | 1.02 | 1.24 | 5.8 | 0.911 | 0.803 | 1.89 | 1.28 | 6.37 | 0.828 | 0.651 | 0.694
5 | HGVSSYDTVIS [LDLR_Y465] | 0.801 | 1.15 | 0.846 | 0.638 | 0.811 | 0.706 | 0.911 | 0.865 | 0.779 | 0.441 | 1.19 | 0.818 | 0.515 | 6.43 | 0.795 | 0.936
6 | HHLSTYTKMLF [CHST8_Y251_R247H] | 0.714 | 1.32 | 0.814 | 0.504 | 0.541 | 1.05 | 0.743 | 0.902 | 0.792 | 0.71 | 1.39 | 0.989 | 0.956 | 2.54 | 3.88 | 1.11
7 | HLLRIYFDITD [MMP27_Y307_W304L_YF] | 0.874 | 2.46 | 0.733 | 0.846 | 0.568 | 1.68 | 2.05 | 0.891 | 1.87 | 0.791 | 1.99 | 0.491 | 1.53 | 0.536 | 0.464 | 0.85
8 | HLPAGYIIPLQ [GAA_Y822_R819P] | 0.443 | 0.764 | 0.491 | 0.297 | 0.542 | 0.444 | 0.608 | 0.28 | 0.363 | 0.492 | 0.638 | 0.388 | 0.383 | 0.987 | 11.3 | 0.895
9 | HLQDEYDFKCK [STAT1_Y170_D165H] | 0.581 | 1.59 | 0.589 | 0.471 | 0.884 | 0.924 | 1.5 | 0.585 | 0.776 | 0.871 | 1.33 | 0.631 | 0.621 | 0.423 | 0.48 | 0.797
10 | HNLNFYKKTTN [FGFR3_Y648_D646N_YF] | 0.735 | 0.92 | 0.572 | 0.806 | 0.605 | 2.99 | 0.832 | 0.553 | 0.642 | 0.565 | 1.42 | 0.975 | 0.761 | 0.428 | 0.632 | 0.722
11 | HQKKPYCHTHN [NRAP_Y53_A56T] | 1.27 | 2.33 | 1.13 | 1.34 | 0.627 | 3.53 | 3.44 | 0.854 | 1.21 | 0.794 | 1.88 | 1.04 | 1.7 | 1.08 | 1.55 | 1.45
12 | HRLSTYTKMLF [CHST8_Y251] | 0.428 | 1.52 | 0.744 | 0.689 | 0.707 | 0.74 | 1.22 | 0.655 | 1.02 | 0.585 | 1.18 | 0.443 | 0.723 | 1.98 | 1.87 | 1.7
13 | HRNNNYEPNLF [BRCA2_Y57_K53R] | 0.54 | 0.75 | 0.465 | 0.552 | 0.617 | 0.662 | 1.06 | 0.858 | 0.509 | 0.419 | 0.684 | 0.583 | 1.07 | 0.668 | 0.651 | 0.674
14 | HSGLAYTMERS [GLUD1_Y512] | 0.403 | 1.26 | 0.383 | 0.561 | 0.521 | 0.543 | 0.985 | 0.495 | 0.56 | 0.763 | 0.933 | 0.685 | 0.897 | 0.314 | 0.733 | 0.698
15 | HSYNSYTYPRL [PAK5_Y316] | 0.658 | 0.682 | 0.485 | 0.554 | 1.78 | 0.532 | 0.716 | 0.508 | 0.553 | 0.652 | 0.776 | 0.449 | 0.472 | 9.16 | 1.12 | 1.04
16 | HTKKNYGNSSV [HDX_Y197_A193T] | 0.252 | 0.656 | 0.462 | 0.393 | 0.442 | 0.515 | 0.433 | 0.403 | 0.331 | 0.472 | 0.443 | 0.337 | 0.181 | 0.532 | 0.647 | 0.907
17 | HVLEEYKPKQG [SAXO2_Y37_P34L] | 0.656 | 0.834 | 0.646 | 0.552 | 0.57 | 1.39 | 1.36 | 0.683 | 0.698 | 0.424 | 0.5 | 1.19 | 0.487 | 0.47 | 0.938 | 0.762

Row | Sequence | phosphorylation enrichment (FGFR1) | phosphorylation enrichment (Fes) | phosphorylation enrichment (Hck) | phosphorylation enrichment (Fer (mouse)) | phosphorylation enrichment (MERTK) | phosphorylation enrichment (FGFR3) | phosphorylation enrichment (Jak2) | phosphorylation enrichment (EPHB2) | phosphorylation enrichment (c-Abl (mouse)) | phosphorylation enrichment (c-Src) | phosphorylation enrichment (AncSZ) | phosphorylation enrichment (Fyn) | phosphorylation enrichment (EPHB1) | SH2 binding enrichment (c-Src SH2) | SH2 binding enrichment (SHP2-C SH2) | SH2 binding enrichment (Grb2 SH2)
18 | IAAEYYDNLPH [DEGS1_Y284] | 7.81 | 1.02 | 2.42 | 0.874 | 0.917 | 5.34 | 0.98 | 0.813 | 0.808 | 0.782 | 1.75 | 0.613 | 0.797 | 1.13 | 0.542 | 0.88
19 | IALSKYGRVKR [FGF6_Y186] | 0.359 | 0.564 | 0.412 | 0.372 | 0.438 | 0.373 | 0.57 | 0.424 | 0.552 | 0.463 | 0.61 | 0.358 | 0.32 | 0.501 | 0.447 | 0.711
20 | IDQDKYAVHFI [FLNA_Y2388_R2391H] | 0.468 | 0.945 | 0.467 | 0.625 | 0.388 | 0.61 | 0.801 | 0.547 | 0.734 | 0.433 | 0.886 | 0.396 | 0.483 | 0.491 | 0.607 | 0.711
21 | IENKPYGMSDP [RET_Y1062_L1061P] | 0.504 | 0.861 | 0.458 | 0.483 | 0.41 | 0.599 | 0.869 | 0.508 | 0.549 | 0.414 | 0.761 | 0.41 | 0.55 | 0.401 | 0.648 | 0.702
22 | IFGVSYDEFRF [CFTR_Y512_YF] | 0.5 | 0.982 | 0.93 | 1.52 | 0.671 | 0.609 | 1.09 | 0.524 | 0.678 | 2.32 | 1.07 | 0.673 | 0.456 | 0.897 | 0.684 | 0.991
23 | IFHLSYHHNCE [PDE6B_Y227_L228H_YF] | 0.499 | 1.18 | 0.478 | 0.517 | 0.381 | 0.694 | 0.831 | 0.635 | 0.588 | 0.455 | 1.15 | 0.522 | 0.567 | 0.873 | 1.16 | 1.14
24 | IGEGTYGQVFK [CDK13_Y716_YF] | 0.324 | 0.665 | 8.97 | 0.636 | 0.428 | 0.402 | 0.569 | 1.18 | 0.566 | 7.69 | 0.456 | 10.8 | 0.62 | 0.426 | 0.808 | 0.774
25 | IGLHAYGDQFR [IDH1_Y135_R132L_YF] | 0.423 | 0.799 | 0.473 | 0.51 | 0.4 | 0.594 | 0.519 | 0.491 | 0.51 | 0.39 | 0.687 | 0.502 | 0.413 | 0.419 | 0.449 | 0.703
26 | IGMIIYFARKA [VCAM1_Y718] | 0.515 | 0.957 | 1.09 | 0.417 | 0.374 | 0.72 | 0.88 | 2.23 | 0.734 | 0.449 | 0.9 | 0.481 | 0.487 | 1.03 | 1.43 | 2.08
27 | IGMLIYFARKA [VCAM1_Y718_I716L] | 0.461 | 0.846 | 0.536 | 0.425 | 0.496 | 0.456 | 0.703 | 0.481 | 0.508 | 0.424 | 0.934 | 0.453 | 0.518 | 0.993 | 1.23 | 1.43
28 | IHFAIYLLKYS [ARMC9_Y107] | 0.368 | 1.16 | 0.463 | 0.486 | 0.425 | 0.686 | 0.917 | 0.59 | 0.753 | 0.446 | 1.09 | 0.516 | 0.486 | 0.726 | 0.955 | 1.44
29 | IINENYDYLKG [NUP98_Y1664] | 0.535 | 0.871 | 1.07 | 0.401 | 0.491 | 0.518 | 0.803 | 0.707 | 0.649 | 0.469 | 0.846 | 0.406 | 0.657 | 0.728 | 0.812 | 0.751
30 | IITDYYVDMKF [MPP4_Y567_V562I] | 7.4 | 1.46 | 1.17 | 1.38 | 1.22 | 5.13 | 2.52 | 2.11 | 0.856 | 0.98 | 1.87 | 1.01 | 3.56 | 1.11 | 0.803 | 0.8
31 | IKGNMYFENSF [EGFR_Y112_R108K_YF] | 0.516 | 0.951 | 0.397 | 0.471 | 0.539 | 0.677 | 1.02 | 0.446 | 0.897 | 0.657 | 0.991 | 0.533 | 0.589 | 0.619 | 0.784 | 0.932
32 | IKNSGYISQFL [EIF2AK3_Y585_R588Q_YF] | 0.445 | 0.579 | 0.458 | 0.377 | 0.327 | 0.474 | 0.404 | 0.458 | 0.625 | 0.385 | 0.531 | 0.531 | 0.434 | 0.573 | 0.878 | 0.908
33 | IKRIAYEFVEM [ADA_Y84] | 0.564 | 0.837 | 0.414 | 2.96 | 0.388 | 0.58 | 0.701 | 0.478 | 0.599 | 0.383 | 0.85 | 0.438 | 0.387 | 0.973 | 0.691 | 0.729
